One block for each binder: values may come before it.
B3: B55 (subunit of the PP2A:B55 holoenzyme) (natural protein, UniProt P63151 1-447, looked up)
chain: MAGAGGGNDIQWCFSQVKGAVDDDVAEADIISTVEFNHSGELLATGDKGGRVVIFQQEQENKIQSHSRGEYNVYSTFQSHEPEFDYLKSLEIEEKINKIRWLPQKNAAQFLLSTNDKTIKLWKISERDKRPEGYNLKEEDGRYRDPTTVTTLRVPVFRPMDLMVEASPRRIFANAHTYHINSISINSDYETYLSADDLRINLWHLEITDRSFNIVDIKPANMEELTEVITAAEFHPNSCNTFVYSSSKGTIRLCDMRASALCDRHSKLFEEPEDPSNRSFFSEIISSISDVKFSHSGRYMMTRDYLSVKIWDLNMENRPVETYQVHEYLRSKLCSLYENDCIFDKFECCWNGSDSVVMTGSYNNFFRMFDRNTKRDITLEASRENNKPRTVLKPRKVCASGKRKKDEISVDSLDFNKKILHTAWHPKENIIAVATTNNLYIFQDKVN
notes: B55 regulatory subunit, printed as full-length B55 1–477; The B55 chain of m1, written alone for the contacts seen in the cryo-EM structures; also called B55WT; source: Expi293F, purified as part of PP2A:B55; not shown: GFP, N-terminal, cleaved
B5: tpS62tpS104ARPP19 (ARPP19 thiophosphorylated by MASTL on Ser62 and Ser104) (natural protein, UniProt P56211 1-112, looked up)
chain: MSAEVPEAASAEEQKEMEDKVTSPEKAEEAKLKARYPHLGQKPGGSDFLRKRLQKGQKYFDSGDYNMAKAKMKNKQLPTAAPDKTEVTGDHIPTPQDLPQRKPSLVASKLAG
modifications: thiophosphoserine at 62 and 104

How the values were obtained:
[1] = biological target: T1, cAMP regulated phosphoprotein 19 (ARPP19), unphosphorylated (UniProt P56211 1-112); experiment: NMR titration; 2D 1H,15N HSQC of 15N-labelled FAM122A or ARPP19 (2–6 μM) with an excess of unlabelled PP2A:B55 or B55LL; peak intensity loss; 283 K; NMR buffer pH 6.3, 150 mM NaCl; conditions: both partners purified
T1 construct: 15N-labelled in the NMR experiments; source: E. coli BL21 (DE3), purified (HisTrap, TEV cleavage, Ni-NTA, heat, SEC); not shown: His6, N-terminal, cleaved; MBP, N-terminal, cleaved
T1 sequence (looked up): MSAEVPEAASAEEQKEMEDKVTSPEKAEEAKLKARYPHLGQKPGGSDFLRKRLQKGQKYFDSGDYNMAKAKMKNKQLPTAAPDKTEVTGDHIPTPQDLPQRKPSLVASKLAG

[2] = biological target: B5; experiment: as above; conditions: both partners purified
[3] = biological target: T2, ARPP19(S10C) labelled with Alexa Fluor 488 (ARPP19-tracer) (UniProt P56211 1-112, S10C, Alexa Fluor 488 C5 Maleimide label); experiment: fluorescence polarisation; PP2A:B55 (or B55LL) serially diluted into 0.1 nM Alexa Fluor 488 tracer (FAM122AID-tracer or ARPP19-tracer); 10 mM HEPES pH 7.0, 150 mM NaCl, 0.5 mM TCEP, 0.01% Triton X-100, 0.1 mg/ml BSA; 30 min at room temperature; conditions: both partners purified
T2 construct: ARPP19, S10C; source: E. coli BL21 (DE3), purified; labelled, recovered by analytical SEC; not shown: His6, N-terminal, cleaved; MBP, N-terminal, cleaved
T2 sequence (looked up): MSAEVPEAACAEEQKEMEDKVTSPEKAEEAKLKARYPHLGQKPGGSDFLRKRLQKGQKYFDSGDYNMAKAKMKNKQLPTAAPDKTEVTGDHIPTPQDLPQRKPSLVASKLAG

[4] = biological target: B3; experiment: cryo-EM structure; purified PP2A:B55 incubated with FAM122AID or tpARPP19 at a 1.5 molar ratio; CHAPSO added before vitrification; conditions: both partners purified
[5] = biological target: T3, PP2Aa_(9–589) (scaffolding subunit of the PP2A:B55 holoenzyme) (UniProt P30153 9-589); experiment: as above; conditions: both partners purified
T3 construct: PP2Aa (PP2A scaffolding A subunit), residues 9-589; The PP2Aa chain of m1, written alone for the contacts seen in the cryo-EM structures; source: E. coli BL21 (DE3), purified (HisTrap, TEV cleavage, Ni-NTA, QTrap, SEC); not shown: His6, N-terminal, cleaved; MBP, N-terminal, cleaved

YFP–ARPP19 F48A = biological target: T4, YFP–ARPP19 F48A (UniProt P56211 1-112, F48A); experiment: co-IP; YFP–ARPP19 variants transiently transfected into HeLa cells, precipitated with GFP-Trap beads at 4 °C in 50 mM Tris-HCl pH 7.5, 50 mM NaCl, 1 mM EDTA, 1 mM DTT, 0.1% NP40; western blot for B55α and PP2Ac; conditions: partners not purified
T4 construct: ARPP19; source: HeLa, transiently transfected, in lysate
T4 sequence (looked up): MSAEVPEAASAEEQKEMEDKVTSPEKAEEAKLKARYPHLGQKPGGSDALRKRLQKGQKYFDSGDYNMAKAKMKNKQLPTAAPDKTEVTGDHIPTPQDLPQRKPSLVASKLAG

YFP–ARPP19 L49A = biological target: T5, YFP–ARPP19 L49A (UniProt P56211 1-112, L49A); experiment: as above; conditions: partners not purified
T5 construct: ARPP19; source: HeLa, transiently transfected, in lysate
T5 sequence (looked up): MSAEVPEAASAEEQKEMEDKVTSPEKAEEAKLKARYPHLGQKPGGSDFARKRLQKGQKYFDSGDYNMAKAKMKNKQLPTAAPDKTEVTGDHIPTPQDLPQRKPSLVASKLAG

YFP–ARPP19 R50A = biological target: T6, YFP–ARPP19 R50A (UniProt P56211 1-112, R50A); experiment: as above; conditions: partners not purified
T6 construct: ARPP19; source: HeLa, transiently transfected, in lysate
T6 sequence (looked up): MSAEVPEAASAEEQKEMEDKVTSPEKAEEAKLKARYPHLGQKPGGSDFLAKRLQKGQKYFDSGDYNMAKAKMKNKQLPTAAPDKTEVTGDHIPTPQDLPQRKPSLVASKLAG

YFP–ARPP19 R52A = biological target: T7, YFP–ARPP19 R52A (UniProt P56211 1-112, R52A); experiment: as above; conditions: partners not purified
T7 construct: ARPP19; source: HeLa, transiently transfected, in lysate
T7 sequence (looked up): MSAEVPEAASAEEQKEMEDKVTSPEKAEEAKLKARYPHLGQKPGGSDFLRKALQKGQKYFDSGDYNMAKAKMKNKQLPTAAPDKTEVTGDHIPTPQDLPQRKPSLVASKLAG

YFP–ARPP19 L53A = biological target: T8, YFP–ARPP19 L53A (UniProt P56211 1-112, L53A); experiment: as above; conditions: partners not purified
T8 construct: ARPP19; source: HeLa, transiently transfected, in lysate
T8 sequence (looked up): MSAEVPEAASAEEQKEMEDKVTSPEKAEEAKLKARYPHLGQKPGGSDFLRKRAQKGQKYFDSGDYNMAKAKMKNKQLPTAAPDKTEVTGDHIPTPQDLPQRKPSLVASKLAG

YFP–ARPP19 K55A = biological target: T9, YFP–ARPP19 K55A (UniProt P56211 1-112, K55A); experiment: as above; conditions: partners not purified
T9 construct: ARPP19; source: HeLa, transiently transfected, in lysate
T9 sequence (looked up): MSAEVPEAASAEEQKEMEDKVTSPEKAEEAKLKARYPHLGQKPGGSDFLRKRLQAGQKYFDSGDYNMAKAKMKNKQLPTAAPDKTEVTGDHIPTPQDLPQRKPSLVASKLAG

[6] = biological target: PP2A:B55 holoenzyme (PP2Aa, B55, PP2Ac) (UniProt P30153 9-589; P63151 1-447; P67775 1-309, C-terminal residue fully methylated (mLeu309)); experiment: cell-based or functional assay
Chain of PP2A:B55 holoenzyme (PP2Aa, B55, PP2Ac) (P30153 9-589, chain 1 of 2): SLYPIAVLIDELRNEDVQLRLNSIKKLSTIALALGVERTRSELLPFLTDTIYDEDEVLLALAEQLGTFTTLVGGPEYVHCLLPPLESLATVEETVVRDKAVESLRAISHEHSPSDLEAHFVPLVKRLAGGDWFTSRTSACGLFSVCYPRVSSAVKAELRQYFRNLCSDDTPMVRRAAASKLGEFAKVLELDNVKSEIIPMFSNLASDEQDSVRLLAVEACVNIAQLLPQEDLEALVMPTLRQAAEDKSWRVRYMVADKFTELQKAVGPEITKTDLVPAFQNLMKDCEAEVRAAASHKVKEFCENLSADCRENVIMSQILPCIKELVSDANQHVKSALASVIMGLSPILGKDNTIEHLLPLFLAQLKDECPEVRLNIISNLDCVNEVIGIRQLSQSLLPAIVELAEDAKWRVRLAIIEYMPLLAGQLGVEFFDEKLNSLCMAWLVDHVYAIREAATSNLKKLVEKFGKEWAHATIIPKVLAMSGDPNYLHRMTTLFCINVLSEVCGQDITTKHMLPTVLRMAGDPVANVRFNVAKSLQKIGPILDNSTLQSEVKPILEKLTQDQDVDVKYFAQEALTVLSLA
Chain of PP2A:B55 holoenzyme (PP2Aa, B55, PP2Ac) (P67775 whole entry, chain 3 of 2): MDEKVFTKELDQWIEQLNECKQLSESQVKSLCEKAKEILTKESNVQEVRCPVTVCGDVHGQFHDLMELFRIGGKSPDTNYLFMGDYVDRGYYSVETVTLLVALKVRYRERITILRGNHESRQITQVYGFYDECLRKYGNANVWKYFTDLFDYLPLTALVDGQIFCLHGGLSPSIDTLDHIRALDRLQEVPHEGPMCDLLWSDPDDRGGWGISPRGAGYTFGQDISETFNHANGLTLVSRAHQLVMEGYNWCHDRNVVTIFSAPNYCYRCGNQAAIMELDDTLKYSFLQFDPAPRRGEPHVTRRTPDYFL

T3 sequence (P30153 9-589): as the sequence (P30153 9-589, chain 1 of 2) above

Binder: B3
binding result [5]: binds

B4: B55, endogenous in HeLa cells (natural protein, human (endogenous in HeLa), UniProt P63151 1-447, looked up)
chain: MAGAGGGNDIQWCFSQVKGAVDDDVAEADIISTVEFNHSGELLATGDKGGRVVIFQQEQENKIQSHSRGEYNVYSTFQSHEPEFDYLKSLEIEEKINKIRWLPQKNAAQFLLSTNDKTIKLWKISERDKRPEGYNLKEEDGRYRDPTTVTTLRVPVFRPMDLMVEASPRRIFANAHTYHINSISINSDYETYLSADDLRINLWHLEITDRSFNIVDIKPANMEELTEVITAAEFHPNSCNTFVYSSSKGTIRLCDMRASALCDRHSKLFEEPEDPSNRSFFSEIISSISDVKFSHSGRYMMTRDYLSVKIWDLNMENRPVETYQVHEYLRSKLCSLYENDCIFDKFECCWNGSDSVVMTGSYNNFFRMFDRNTKRDITLEASRENNKPRTVLKPRKVCASGKRKKDEISVDSLDFNKKILHTAWHPKENIIAVATTNNLYIFQDKVN
notes: B55 detected with an antibody to B55α; also called B55α; source: endogenous, HeLa lysate
binding, percent of wild type (YFP–ARPP19 F48A): ~50%
binding, percent of wild type (YFP–ARPP19 L49A): ~75%
binding, percent of wild type (YFP–ARPP19 R50A): ~50%
binding, percent of wild type (YFP–ARPP19 R52A): < 25%
binding, percent of wild type (YFP–ARPP19 L53A): < 25%
binding, percent of wild type (YFP–ARPP19 K55A): ~75%

Binder: B5
potency of PP2A:B55 inhibition (DiFMUP) against that of FAM122A [6]: ~250 fold

B6: FAM122AID I88A/K89A/S120C (domain or fragment, UniProt Q96E09 29-120, looked up)
chain: GGGLRRSNSAPLIHGLSDTSPVFQAEAPSARRNSTTFPSRHGLLLPASPVRMHSSRLHQAAQEEGMDLINRETVHEREVQTAMQISHSWEEC
modifications: Alexa Fluor 488 C5 Maleimide label (fluorescence polarization assay)
IC50 of PP2A:B55 inhibition (DiFMUP), fold increase against wild type [6]: 48 fold

Now from value to binder:

binding result [1]: binds
binding result [2]: binds
binding result [3]: binds
B1: B55 loopless (B55LL) (domain or fragment)
chain: MAGAGGGNDIQWCFSQVKGAVDDDVAEADIISTVEFNHSGELLATGDKGGRVVIFQQEQENKIQSHSRGEYNVYSTFQSHEPEFDYLKSLEIEEKINKIRWLPQKNAAQFLLSTNDKTIKLWKISNGEASPRRIFANAHTYHINSISINSDYETYLSADDLRINLWHLEITDRSFNIVDIKPANMEELTEVITAAEFHPNSCNTFVYSSSKGTIRLCDMRASALCDRHSKLFEEPEDPSNRSFFSEIISSISDVKFSHSGRYMMTRDYLSVKIWDLNMENRPVETYQVHEYLRSKLCSLYENDCIFDKFECCWNGSDSVVMTGSYNNFFRMFDRNTKRDITLEASRENNKPRTVLKPRKVCASGKRKKDEISVDSLDFNKKILHTAWHPKENIIAVATTNNLYIFQDKVN
notes: linker that replaces B55 residues 126–164; source: Expi293F, purified (GFP-nanobody beads, TEV on-column cleavage, QTrap, SEC); not shown: GFP, N-terminal, cleaved

binding result [4]: binds
B2: tpS62ARPP19_(S104A) (singly thiophosphorylated ARPP19) (natural protein, UniProt P56211 1-112, looked up)
chain: MSAEVPEAASAEEQKEMEDKVTSPEKAEEAKLKARYPHLGQKPGGSDFLRKRLQKGQKYFDSGDYNMAKAKMKNKQLPTAAPDKTEVTGDHIPTPQDLPQRKPALVASKLAG
modifications: thiophosphoserine at 62
notes: also called tpARPP19; S62 tpARPP19_(S104A); source: E. coli BL21 (DE3), purified; thiophosphorylated with MASTL kinase and ATP-γ-S; not shown: His6, N-terminal, cleaved; MBP, N-terminal, cleaved

IC50 of PP2A:B55 inhibition (DiFMUP), fold increase against wild type [6]: 38 fold
B7: FAM122AID R84A/L85A/S120C (domain or fragment, UniProt Q96E09 29-120, looked up)
chain: GGGLRRSNSAPLIHGLSDTSPVFQAEAPSARRNSTTFPSRHGLLLPASPVRMHSSAAHQIKQEEGMDLINRETVHEREVQTAMQISHSWEEC
modifications: Alexa Fluor 488 C5 Maleimide label (fluorescence polarization assay)

Source: article PMC10765524, “Cryo-EM structures of PP2A:B55–FAM122A and PP2A:B55–ARPP19” (Nature, 2023)
